For data set [1], the target named is T1, ParB(E111Q) (Bacillus subtilis, UniProt P26497, E111Q).
T1 construct: gene spo0J; full-length, untagged
T1 sequence (P26497 1-282 E111Q): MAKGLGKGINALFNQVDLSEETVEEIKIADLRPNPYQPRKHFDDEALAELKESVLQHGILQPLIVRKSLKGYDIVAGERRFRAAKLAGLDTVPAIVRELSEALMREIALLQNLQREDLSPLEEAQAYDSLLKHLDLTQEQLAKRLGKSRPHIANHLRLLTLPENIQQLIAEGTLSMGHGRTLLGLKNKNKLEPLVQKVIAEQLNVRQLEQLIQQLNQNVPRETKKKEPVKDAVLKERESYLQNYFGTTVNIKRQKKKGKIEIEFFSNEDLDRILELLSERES
As to the kind of experiment: N-gate closure by BMOE cross-linking (T22C); BLI DNA loading. The data set is classed as biochemical.

In data set [2] the target is T2, ParB (Bacillus subtilis, UniProt P26497).
T2 construct: gene spo0J; full-length, untagged
T2 sequence (P26497 1-282): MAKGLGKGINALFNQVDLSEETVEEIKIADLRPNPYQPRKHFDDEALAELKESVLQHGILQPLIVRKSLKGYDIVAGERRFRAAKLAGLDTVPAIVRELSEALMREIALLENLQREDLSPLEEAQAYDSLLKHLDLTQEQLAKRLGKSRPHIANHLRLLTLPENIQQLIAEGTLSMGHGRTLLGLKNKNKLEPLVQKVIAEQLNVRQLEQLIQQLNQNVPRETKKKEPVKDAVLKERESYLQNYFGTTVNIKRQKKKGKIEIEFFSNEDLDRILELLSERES
Description: BLI of ParB loading on and dissociation from parS DNA with nucleotide; N-gate cross-linking. The data set is classed as biochemical.

The target of data set [3] is T3, ParB(E78Q) (Bacillus subtilis, UniProt P26497, E78Q).
T3 construct: gene spo0J; full-length, untagged
T3 sequence (P26497 1-282 E78Q): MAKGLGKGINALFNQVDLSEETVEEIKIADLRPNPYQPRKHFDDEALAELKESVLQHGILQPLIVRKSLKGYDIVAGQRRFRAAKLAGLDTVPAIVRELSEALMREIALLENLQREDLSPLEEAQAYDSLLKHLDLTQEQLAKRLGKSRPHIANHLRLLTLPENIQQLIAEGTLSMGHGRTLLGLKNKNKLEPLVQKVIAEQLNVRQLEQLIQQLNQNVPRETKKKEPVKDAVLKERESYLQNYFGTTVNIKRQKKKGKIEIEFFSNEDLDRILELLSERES
As to the kind of experiment: N-gate closure by BMOE cross-linking (T22C); BLI DNA loading. The data set is classed as biochemical.

Data set [4] has as its target T1, ParB(E111Q). As to the kind of experiment: ITC; also N-gate cross-linking and BLI DNA loading; no appreciable hydrolysis. The data set is classed as binding. A general note: In ITC the heat of successive injections is recorded.
Data set [5] deals with T3, ParB(E78Q). Described as above. The data set is classed as binding.
In data set [6] the target is T2, ParB. Description: ITC; also CTP hydrolysis (malachite green), N-gate cross-linking and BLI DNA loading. The data set is classed as binding.
Data set [7] deals with the molecule itself. Description: cross-linking; in vitro BMOE (1 mM) cysteine cross-linking, 10 uM ParB, with or without 1 mM CTP or CTPγS and 1 uM 40-bp parS DNA, 150 mM NaCl, 50 mM tris-HCl pH 7.5, 5 mM MgCl2, room temperature; SDS-PAGE, Coomassie.
Data set [8] concerns the target T4, ParB(T22C, E78Q)-HT, P26497.
T4 chain: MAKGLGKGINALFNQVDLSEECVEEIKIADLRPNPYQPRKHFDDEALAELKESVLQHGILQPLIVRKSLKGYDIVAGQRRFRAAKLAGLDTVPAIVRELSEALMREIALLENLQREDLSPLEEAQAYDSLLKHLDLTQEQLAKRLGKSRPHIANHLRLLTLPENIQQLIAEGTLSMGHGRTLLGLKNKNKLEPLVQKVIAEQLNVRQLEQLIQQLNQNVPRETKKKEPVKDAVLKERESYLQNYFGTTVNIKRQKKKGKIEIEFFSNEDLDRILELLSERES
Description: in vivo BMOE cysteine cross-linking (SDS-PAGE, HaloTag TMR in-gel fluorescence, band quantification). Particulars: chain shown with the change, read off a plot.

Data set [9] has as its target T5, ParB(R105C, H133C, E78Q)-HT, P26497.
T5 chain: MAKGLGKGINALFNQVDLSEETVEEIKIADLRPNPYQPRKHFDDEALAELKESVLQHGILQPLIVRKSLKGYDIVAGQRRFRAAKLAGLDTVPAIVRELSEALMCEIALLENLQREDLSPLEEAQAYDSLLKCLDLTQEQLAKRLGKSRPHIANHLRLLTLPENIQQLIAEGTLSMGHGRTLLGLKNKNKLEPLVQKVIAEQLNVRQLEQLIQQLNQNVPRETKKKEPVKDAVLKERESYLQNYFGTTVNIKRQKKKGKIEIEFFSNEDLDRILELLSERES
Described as above. Particulars: chain shown with the change, Inter XL plus Inter 2XL species, read off a plot.

Data set [10] addresses T6, ParB(T22C, E111Q)-HT, P26497.
T6 chain: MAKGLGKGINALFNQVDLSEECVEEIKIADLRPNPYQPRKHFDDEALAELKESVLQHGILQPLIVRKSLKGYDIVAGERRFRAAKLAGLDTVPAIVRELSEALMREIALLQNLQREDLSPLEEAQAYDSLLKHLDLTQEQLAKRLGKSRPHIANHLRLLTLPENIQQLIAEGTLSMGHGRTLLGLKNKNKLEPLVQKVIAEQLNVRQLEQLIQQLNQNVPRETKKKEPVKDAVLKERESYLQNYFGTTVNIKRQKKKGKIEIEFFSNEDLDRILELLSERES
The description is as above. Particulars: chain shown with the change, read off a plot.

The target in data set [11] is T7, ParB(R105C, H133C, E111Q)-HT, P26497.
T7 chain: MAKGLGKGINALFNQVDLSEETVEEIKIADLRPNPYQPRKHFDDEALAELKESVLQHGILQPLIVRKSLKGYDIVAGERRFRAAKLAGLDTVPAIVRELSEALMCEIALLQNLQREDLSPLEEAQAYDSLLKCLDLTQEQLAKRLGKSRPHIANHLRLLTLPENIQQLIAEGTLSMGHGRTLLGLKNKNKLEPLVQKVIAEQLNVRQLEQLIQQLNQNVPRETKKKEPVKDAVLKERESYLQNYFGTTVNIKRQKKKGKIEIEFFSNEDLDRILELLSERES
The description is as above. To be noted: chain shown with the change, Inter XL plus Inter 2XL species, read off a plot.

The mark [12] stands for this setting: parS: Δ8 (strain lacking the 8 parS sites).

Usually Kd stands for the free concentration of one partner at which half of the binding sites on the other are occupied at equilibrium, for simple one-to-one binding. A low value points to tighter binding.

Regarding `Nc1ccn([C@@H]2O[C@H](COP(=O)(O)OP(=O)(O)OP(O)(O)=S)[C@@H](O)[C@H]2O)c(=O)n1` [CTPγS], the “N-gate closure by BMOE cross-linking (T22C); BLI DNA loading” value in data set [1] was “we found that the EQ mutants supported N-gate closure equally well with CTP and CTPγS”; in [3], “we found that the EQ mutants supported N-gate closure equally well with CTP and CTPγS”. Further, in [2], the “BLI of ParB loading on and dissociation from parS DNA with nucleotide; N-gate cr” value is “differences in the dissociation rates between wild-type and EQ proteins were eliminated when CTPγS was used instead of CTP”.
As to `Nc1ccn([C@@H]2O[C@H](COP(=O)(O)OP(=O)(O)OP(=O)(O)O)[C@@H](O)[C@H]2O)c(=O)n1` [CTP], the Kd in [4], in data set [5] and in data set [6] was 5 to 8 µM in each case.

B1: ParB(T22C, E78Q) (natural protein, B. subtilis, UniProt P26497 1-282, looked up)
chain: MAKGLGKGINALFNQVDLSEECVEEIKIADLRPNPYQPRKHFDDEALAELKESVLQHGILQPLIVRKSLKGYDIVAGQRRFRAAKLAGLDTVPAIVRELSEALMREIALLENLQREDLSPLEEAQAYDSLLKHLDLTQEQLAKRLGKSRPHIANHLRLLTLPENIQQLIAEGTLSMGHGRTLLGLKNKNKLEPLVQKVIAEQLNVRQLEQLIQQLNQNVPRETKKKEPVKDAVLKERESYLQNYFGTTVNIKRQKKKGKIEIEFFSNEDLDRILELLSERES
notes: ParB, B. subtilis, untagged recombinant protein, CTP hydrolysis-defective mutant with the T22C reporter cysteine; source: E. coli BL21-Gold (DE3), purified (ammonium sulfate, heparin, HiTrap SP, Superdex 200)
B1: in data set [7], the binding result was “binds”. In addition, the other: fraction of cross-linked dimers in data set [8] (N-N XL species) worked out at 0.57. Further, the other: fraction of cross-linked species was determined as 0.72 in data set [8] (parS: All) and 0.52 in [8] (setting [12]).

B2: ParB(R105C, H133C) (natural protein, B. subtilis, UniProt P26497 1-282, looked up)
chain: MAKGLGKGINALFNQVDLSEETVEEIKIADLRPNPYQPRKHFDDEALAELKESVLQHGILQPLIVRKSLKGYDIVAGERRFRAAKLAGLDTVPAIVRELSEALMCEIALLENLQREDLSPLEEAQAYDSLLKCLDLTQEQLAKRLGKSRPHIANHLRLLTLPENIQQLIAEGTLSMGHGRTLLGLKNKNKLEPLVQKVIAEQLNVRQLEQLIQQLNQNVPRETKKKEPVKDAVLKERESYLQNYFGTTVNIKRQKKKGKIEIEFFSNEDLDRILELLSERES
notes: ParB, B. subtilis, untagged recombinant protein with cysteines at the N-M interface; source: E. coli BL21-Gold (DE3), purified (ammonium sulfate, heparin, HiTrap SP, Superdex 200)
For B2, in data set [7], the binding result is listed as “binds”.

B3: ParB-HT (wt) R105C; H133C; E78Q (protein)
chain: MAKGLGKGINALFNQVDLSEETVEEIKIADLRPNPYQPRKHFDDEALAELKESVLQHGILQPLIVRKSLKGYDIVAGQRRFRAAKLAGLDTVPAIVRELSEALMCEIALLENLQREDLSPLEEAQAYDSLLKCLDLTQEQLAKRLGKSRPHIANHLRLLTLPENIQQLIAEGTLSMGHGRTLLGLKNKNKLEPLVQKVIAEQLNVRQLEQLIQQLNQNVPRETKKKEPVKDAVLKERESYLQNYFGTTVNIKRQKKKGKIEIEFFSNEDLDRILELLSERES
Regarding B3, the other: fraction of cross-linked dimers in data set [9] came to 0.77.

B4: ParB(A102C, H133C) (natural protein, B. subtilis, UniProt P26497 1-282, looked up)
chain: MAKGLGKGINALFNQVDLSEETVEEIKIADLRPNPYQPRKHFDDEALAELKESVLQHGILQPLIVRKSLKGYDIVAGERRFRAAKLAGLDTVPAIVRELSECLMREIALLENLQREDLSPLEEAQAYDSLLKCLDLTQEQLAKRLGKSRPHIANHLRLLTLPENIQQLIAEGTLSMGHGRTLLGLKNKNKLEPLVQKVIAEQLNVRQLEQLIQQLNQNVPRETKKKEPVKDAVLKERESYLQNYFGTTVNIKRQKKKGKIEIEFFSNEDLDRILELLSERES
notes: as for B2
Consider B4, for which the binding result in [7] is on record as “binds”.

B5: ParB(T22C, E111Q) (natural protein, B. subtilis, UniProt P26497 1-282, looked up)
chain: MAKGLGKGINALFNQVDLSEECVEEIKIADLRPNPYQPRKHFDDEALAELKESVLQHGILQPLIVRKSLKGYDIVAGERRFRAAKLAGLDTVPAIVRELSEALMREIALLQNLQREDLSPLEEAQAYDSLLKHLDLTQEQLAKRLGKSRPHIANHLRLLTLPENIQQLIAEGTLSMGHGRTLLGLKNKNKLEPLVQKVIAEQLNVRQLEQLIQQLNQNVPRETKKKEPVKDAVLKERESYLQNYFGTTVNIKRQKKKGKIEIEFFSNEDLDRILELLSERES
notes: as for B1
As to B5, the binding result in [7] is recorded as “binds”. Also, in data set [10] (N-N XL species), the other: fraction of cross-linked dimers came out at 0.36. Moreover, the other: fraction of cross-linked species in data set [10] (parS: All) stood at 0.49; in data set [10] (setting [12]), 0.45.

B6: ParB-HT (wt) R105C; H133C; E111Q (protein)
chain: MAKGLGKGINALFNQVDLSEETVEEIKIADLRPNPYQPRKHFDDEALAELKESVLQHGILQPLIVRKSLKGYDIVAGERRFRAAKLAGLDTVPAIVRELSEALMCEIALLQNLQREDLSPLEEAQAYDSLLKCLDLTQEQLAKRLGKSRPHIANHLRLLTLPENIQQLIAEGTLSMGHGRTLLGLKNKNKLEPLVQKVIAEQLNVRQLEQLIQQLNQNVPRETKKKEPVKDAVLKERESYLQNYFGTTVNIKRQKKKGKIEIEFFSNEDLDRILELLSERES
As to B6, the other: fraction of cross-linked dimers in [11] was found to be 0.2.

B7: ParB(T22C) (natural protein, B. subtilis, UniProt P26497 1-282, looked up)
chain: MAKGLGKGINALFNQVDLSEECVEEIKIADLRPNPYQPRKHFDDEALAELKESVLQHGILQPLIVRKSLKGYDIVAGERRFRAAKLAGLDTVPAIVRELSEALMREIALLENLQREDLSPLEEAQAYDSLLKHLDLTQEQLAKRLGKSRPHIANHLRLLTLPENIQQLIAEGTLSMGHGRTLLGLKNKNKLEPLVQKVIAEQLNVRQLEQLIQQLNQNVPRETKKKEPVKDAVLKERESYLQNYFGTTVNIKRQKKKGKIEIEFFSNEDLDRILELLSERES
notes: ParB, B. subtilis, untagged recombinant protein with a cysteine at the N-gate; source: E. coli BL21-Gold (DE3), purified (ammonium sulfate, heparin, HiTrap SP, Superdex 200)
In the case of B7, the binding result in data set [7] is “binds”.

For the origin of these results see publication PMC8494293, “Relief of ParB autoinhibition by parS DNA catalysis and recycling of ParB by CTP hydrolysis promote bacterial centromere assembly” (Science Advances, 2021).
